Measurements reported in patent US20220112295A1 (Novo Nordisk, published 2022).
Residue numbers refer to the chain shown, from its start. Each block holds one binder with its values, some of them ahead of it.

Tests used:
[1] = target: T1, recombinant human CD30L isoleucine zipper (huCD30L LZ) (human, UniProt P32971 63-234); assay: blocking of human CD30L LZ binding to K299 cells (CD30)
T1 construct: also called huCD38L LZ; CD30L LZ Hu; not shown: N-terminal isoleucine zipper motif (leucine zipper with leucines replaced by isoleucines)
T1 sequence: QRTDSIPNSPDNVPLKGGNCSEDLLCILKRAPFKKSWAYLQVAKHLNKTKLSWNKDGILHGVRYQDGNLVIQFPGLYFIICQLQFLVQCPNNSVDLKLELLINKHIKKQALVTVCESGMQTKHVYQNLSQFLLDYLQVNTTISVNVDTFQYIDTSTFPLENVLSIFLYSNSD

[2] = target: T2, FLAG-hCD30L-EC (N153Q) treated with PNGaseF (human); assay: HX-MS, 6 uM hCD30L with 6.6 uM mAb
T2 construct: also called FLAG-hCD30L-EC + PNGaseF
T2 chain: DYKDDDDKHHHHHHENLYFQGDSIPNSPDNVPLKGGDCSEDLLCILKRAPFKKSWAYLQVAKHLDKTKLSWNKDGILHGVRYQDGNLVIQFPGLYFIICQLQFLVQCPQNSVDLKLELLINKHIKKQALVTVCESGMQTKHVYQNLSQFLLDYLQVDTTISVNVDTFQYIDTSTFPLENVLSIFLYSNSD

[3] = target: T1, recombinant human CD30L isoleucine …; assay: cell-based or functional assay
[4] = target: T3, native human CD30L expressed on Ramos cells (human, UniProt P32971 1-234); assay: cell-based or functional assay
T3 sequence: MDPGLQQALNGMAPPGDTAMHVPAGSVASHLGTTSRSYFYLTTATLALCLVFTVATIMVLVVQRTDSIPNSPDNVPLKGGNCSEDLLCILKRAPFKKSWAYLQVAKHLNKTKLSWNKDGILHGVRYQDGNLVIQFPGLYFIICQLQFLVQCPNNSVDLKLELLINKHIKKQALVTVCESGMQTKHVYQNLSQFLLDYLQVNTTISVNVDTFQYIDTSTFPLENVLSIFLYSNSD

cyno CD30L LZ = target: T4, cyno CD30L LZ (cynomolgus monkey, UniProt A0A7N9CVX7 63-234); assay: cell-based or functional assay
T4 sequence: T1 sequence with V13I, K16R, I142V, I165V

IC50 [1]: 1.4 nM
binding result [2]: binds
IC50, inhibition of IL-8 release (K299 single cell assay with huCD30L LZ) [3]: 2.7 nM
IC50, inhibition of IL-8 release (K299/Ramos dual cell assay) [4]: 0.033 nM
IC50, inhibition of IL-8 release (K299 single cell assay with cyno CD30L LZ) (cyno CD30L LZ): 2.4 nM
B1: Antibody A1 (antibody, V domains shown)
VH: QVQLQESGPGLVKPSETLSLTCTVSGGSISSYIWSWIRQPAGKGLEWIGRIYASGNTNYNPSLKSRVTISVDTSKNQFSLKLSSMTAADTAVYYCARDYRVAGTYYYYYGLDVWGQGTTVTVSS
VL: QSALTQPASVSGSPGQSITISCTGTSSDVGVYDYVSWYQQHPGKAPKLMIYEVSNRPSGVSNRFSGSKSGNTASLTISGLQTEDEADYYCSSYTSRSTWVFGGGTKLTVL
notes: also called mAb A1; Antibody A1 IgG2

IC50, inhibition of IL-8 release (K299/Ramos dual cell assay) [4]: 0.032 nM
IC50, inhibition of IL-8 release (K299 single cell assay with cyno CD30L LZ) (cyno CD30L LZ): 1.5 nM
B2: Antibody A1 IgG1 (antibody, V domains shown)
VH: B1 VH
VL: B1 VL
